According to US20030229005:

T1: Dnp-GPVNFRVC(Me)-NH2
T1 chain: GPVNFRVX

B1: collagenase 1 (protein)
chain: FVLTEGNPRWEQTHLTYRIENYTPDLPRADVDHAIEKAFQLWSNVTPLTFTKVSEGQADIMISFVRGDHRDNSPFDGPGGNLAHAFQPGPGIGGDAHFDEDERWTNNFREYNLHRVAAHELGHSLGLSHSTDIGALMYPSYTFSGDVQLAQDDIDGIQAIYGRSQNPVQPIGPQTPKACDSKLTFDAITTIRGEVMFFKDRFYMRTNPFYPEVELNFISVFWPQLPNGLEAAYEFADRDEVRFFKGNKYWAVQGQNVLHGYPKDIYSSFGFPRTVKHIDAALSEENTGKTYFFVANKYWRYDEYKRSMDPGYPKMIAHDFPGIGHKVDAVFMKDGFFYFFHGTRQYKFDPKTKRILTLQKANSWFNCRKN
B2: human Gelatinase-A (protein)
chain: YNFFPRKPKWDKNQITYRIIGYTPDLDPETVDDAFARAFQVWSDVTPLRFSRIHDGEADIMINFGRWEHGDGYPFDGKDGLLAHAFAPGTGVGGDSHFDDDELWTLGEGQVVRVKYGNADGEYCKFPFLFNGKEYNSCTDTGRSDGFLWCSTTYNFEKDGKYGFCPHEALFTMGGNAEGQPCKFPFRFQGTSYDSCTTEGRTDGYRWCGTTEDYDRDKKYGFCPETAMSTVGGNSEGAPCVFPFTFLGNKYESCTSAGRSDGKMWCATTANYDDDRKWGFCPDQGYSLFLVAAHEFGHAMGLEHSQDPGALMAPIYTYTKNFRLSQDDIKGIQELYGASPDIDLGTGPTPTLGPVTPEICKQDIVFDGIAQIRGEIFFFKDRFIWRTVTPRDKPMGPLLVATFWPELPEKIDAVYEAPQEEKAVFFAGNEYWIYSASTLERGYPKPLTSLGLPPDVQRVDAAFNWSKNKKTYIFAGDKFWRYNEVKKKMDPGFPKLIADAWNAIPDNLDAVVDLQGGGHSYFFKGAYYLKLENQSLKSVKFGSIKSDWLGC

Key:
Dnp-GPVNFRVC(Me)-NH2 = target: T1, Dnp-GPVNFRVC(Me)-NH2

Chain of type IV collagen, P08572 (P08572 26-1712, chain 1 of 2): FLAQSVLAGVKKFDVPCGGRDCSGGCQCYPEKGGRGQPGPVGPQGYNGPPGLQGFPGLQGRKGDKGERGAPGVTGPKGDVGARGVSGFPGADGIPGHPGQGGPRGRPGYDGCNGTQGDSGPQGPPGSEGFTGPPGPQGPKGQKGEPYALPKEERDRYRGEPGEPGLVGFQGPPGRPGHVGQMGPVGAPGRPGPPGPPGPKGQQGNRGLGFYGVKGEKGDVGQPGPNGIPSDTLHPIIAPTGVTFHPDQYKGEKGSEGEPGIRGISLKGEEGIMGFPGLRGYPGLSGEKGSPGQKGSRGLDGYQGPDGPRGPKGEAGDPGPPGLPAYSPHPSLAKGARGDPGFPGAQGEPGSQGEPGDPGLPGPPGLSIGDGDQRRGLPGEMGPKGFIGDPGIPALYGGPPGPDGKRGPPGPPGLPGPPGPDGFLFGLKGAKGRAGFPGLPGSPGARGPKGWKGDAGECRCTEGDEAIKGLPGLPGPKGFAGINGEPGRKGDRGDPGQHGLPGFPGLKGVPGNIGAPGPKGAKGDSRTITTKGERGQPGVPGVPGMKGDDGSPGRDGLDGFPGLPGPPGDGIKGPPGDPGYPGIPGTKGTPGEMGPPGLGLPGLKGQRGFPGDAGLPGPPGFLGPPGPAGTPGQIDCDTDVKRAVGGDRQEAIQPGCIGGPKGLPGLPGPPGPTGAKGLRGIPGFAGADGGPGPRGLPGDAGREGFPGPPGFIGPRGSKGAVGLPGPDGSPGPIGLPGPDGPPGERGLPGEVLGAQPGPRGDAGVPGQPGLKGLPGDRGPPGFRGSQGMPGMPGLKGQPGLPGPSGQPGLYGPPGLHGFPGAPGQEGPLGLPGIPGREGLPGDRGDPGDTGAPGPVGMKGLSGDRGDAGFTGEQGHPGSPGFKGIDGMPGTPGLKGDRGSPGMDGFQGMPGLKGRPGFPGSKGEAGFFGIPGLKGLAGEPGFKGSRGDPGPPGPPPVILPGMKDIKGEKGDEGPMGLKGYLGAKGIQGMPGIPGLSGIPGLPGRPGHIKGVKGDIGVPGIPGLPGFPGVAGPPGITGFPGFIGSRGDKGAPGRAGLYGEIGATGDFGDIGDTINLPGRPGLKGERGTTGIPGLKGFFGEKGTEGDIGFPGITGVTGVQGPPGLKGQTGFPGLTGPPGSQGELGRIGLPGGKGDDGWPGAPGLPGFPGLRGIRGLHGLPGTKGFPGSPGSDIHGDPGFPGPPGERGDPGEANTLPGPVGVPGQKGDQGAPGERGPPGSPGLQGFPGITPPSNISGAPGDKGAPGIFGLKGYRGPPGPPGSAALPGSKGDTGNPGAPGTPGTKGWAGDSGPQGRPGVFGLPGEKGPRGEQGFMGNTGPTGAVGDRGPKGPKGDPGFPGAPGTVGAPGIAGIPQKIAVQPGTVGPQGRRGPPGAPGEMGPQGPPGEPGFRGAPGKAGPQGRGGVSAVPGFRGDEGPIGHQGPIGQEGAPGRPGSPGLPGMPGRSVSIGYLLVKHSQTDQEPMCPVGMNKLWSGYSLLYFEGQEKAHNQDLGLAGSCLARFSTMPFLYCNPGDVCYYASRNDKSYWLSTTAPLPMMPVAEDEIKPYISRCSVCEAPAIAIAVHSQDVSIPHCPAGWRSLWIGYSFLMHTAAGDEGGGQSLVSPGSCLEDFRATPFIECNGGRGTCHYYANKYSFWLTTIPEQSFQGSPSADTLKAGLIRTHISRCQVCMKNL
Chain of type IV collagen, P08572 (chain, as listed by the source, chain 2 of 2): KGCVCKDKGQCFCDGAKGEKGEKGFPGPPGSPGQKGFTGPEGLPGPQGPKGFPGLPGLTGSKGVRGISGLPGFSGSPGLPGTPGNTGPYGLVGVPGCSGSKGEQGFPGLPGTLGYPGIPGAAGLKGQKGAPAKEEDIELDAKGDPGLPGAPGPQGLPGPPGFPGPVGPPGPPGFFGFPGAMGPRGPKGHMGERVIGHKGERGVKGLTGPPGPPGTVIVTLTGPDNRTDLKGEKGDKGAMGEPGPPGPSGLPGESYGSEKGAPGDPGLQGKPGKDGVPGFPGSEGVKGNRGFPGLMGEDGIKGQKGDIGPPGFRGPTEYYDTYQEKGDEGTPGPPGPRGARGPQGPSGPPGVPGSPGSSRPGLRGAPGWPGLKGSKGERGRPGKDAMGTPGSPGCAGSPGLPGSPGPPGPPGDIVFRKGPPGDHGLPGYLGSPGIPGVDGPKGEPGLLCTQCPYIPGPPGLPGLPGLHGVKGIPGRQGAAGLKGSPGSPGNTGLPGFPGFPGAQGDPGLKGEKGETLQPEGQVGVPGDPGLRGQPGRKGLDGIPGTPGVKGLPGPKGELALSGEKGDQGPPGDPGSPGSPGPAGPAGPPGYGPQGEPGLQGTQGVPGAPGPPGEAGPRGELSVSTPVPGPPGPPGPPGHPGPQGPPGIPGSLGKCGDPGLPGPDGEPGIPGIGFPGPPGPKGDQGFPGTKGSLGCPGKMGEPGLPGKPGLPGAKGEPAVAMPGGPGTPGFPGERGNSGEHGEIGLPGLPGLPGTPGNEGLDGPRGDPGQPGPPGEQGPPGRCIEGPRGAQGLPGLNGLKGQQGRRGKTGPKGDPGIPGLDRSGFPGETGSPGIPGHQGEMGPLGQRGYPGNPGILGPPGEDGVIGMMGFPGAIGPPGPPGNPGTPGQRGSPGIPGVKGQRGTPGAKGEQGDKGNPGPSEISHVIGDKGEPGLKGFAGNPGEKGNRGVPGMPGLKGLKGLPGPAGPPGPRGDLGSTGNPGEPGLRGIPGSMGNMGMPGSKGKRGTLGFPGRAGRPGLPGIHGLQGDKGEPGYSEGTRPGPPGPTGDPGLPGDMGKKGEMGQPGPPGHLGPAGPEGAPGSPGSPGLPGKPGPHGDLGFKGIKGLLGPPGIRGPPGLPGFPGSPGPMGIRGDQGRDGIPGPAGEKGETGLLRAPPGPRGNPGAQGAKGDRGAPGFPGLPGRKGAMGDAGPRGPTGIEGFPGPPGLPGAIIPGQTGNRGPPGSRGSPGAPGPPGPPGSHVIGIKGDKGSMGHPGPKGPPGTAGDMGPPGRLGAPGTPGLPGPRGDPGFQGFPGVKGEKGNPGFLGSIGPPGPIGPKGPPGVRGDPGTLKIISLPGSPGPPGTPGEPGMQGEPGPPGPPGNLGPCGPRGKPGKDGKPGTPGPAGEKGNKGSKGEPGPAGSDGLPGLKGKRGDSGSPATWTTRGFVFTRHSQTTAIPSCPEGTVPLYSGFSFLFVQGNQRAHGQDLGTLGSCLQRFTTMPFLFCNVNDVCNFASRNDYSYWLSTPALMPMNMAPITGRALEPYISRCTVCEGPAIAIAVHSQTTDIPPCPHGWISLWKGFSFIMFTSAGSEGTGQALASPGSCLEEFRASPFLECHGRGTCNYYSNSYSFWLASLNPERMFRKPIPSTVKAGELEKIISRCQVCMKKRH

Protein	cleavage seen on a gel (type IV collagen, P08572)	Selectivity v. Coll-3, substrate 5 uM (Dnp-GPVNFRVC(Me)-NH2)
B1	Both collagenase 1 and gelatinase B processed type IV collagen under the conditions used in our experiments	–
B2	No detectable cleavage was observed by gelatinase A in an earlier experiment	88 unitless
